Paper PMC6695400, “Diversity of oligomerization in Drosophila semaphorins suggests a mechanism of functional fine-tuning” (Nature Communications, 2019)
Read-outs that look alike come from different tables or passages of the source. Values belong to the molecule of their own block, whether it stands above or below them.

Tests used:
[1] = target: Sema2b_(full) with the dimerization cysteine mutated to serine (Drosophila melanogaster); test: SEC-MALS; Superdex 200 Increase 10/300, 15 mM HEPES pH 7.4, 150 mM NaCl; with SDS-PAGE under reducing and non-reducing conditions; initial concentrations up to 2 mg/ml; monomer to dimer
[2] = target: Drosophila melanogaster PlexB1–4-mVenus (Drosophila melanogaster) (UniProt Q9V4A7); test: MST; plexin-mVenus kept constant, unlabelled semaphorin titrated (1:1 dilution series); 25 °C; 15 mM HEPES pH 7.4, 150 mM NaCl, 2 mM CaCl2, 0.005% Tween-20; 1 h incubation at room temperature; apparent Kd
Drosophila melanogaster PlexB1–4-mVenus (Drosophila melanogaster), sequence (Q9V4A7 35-730): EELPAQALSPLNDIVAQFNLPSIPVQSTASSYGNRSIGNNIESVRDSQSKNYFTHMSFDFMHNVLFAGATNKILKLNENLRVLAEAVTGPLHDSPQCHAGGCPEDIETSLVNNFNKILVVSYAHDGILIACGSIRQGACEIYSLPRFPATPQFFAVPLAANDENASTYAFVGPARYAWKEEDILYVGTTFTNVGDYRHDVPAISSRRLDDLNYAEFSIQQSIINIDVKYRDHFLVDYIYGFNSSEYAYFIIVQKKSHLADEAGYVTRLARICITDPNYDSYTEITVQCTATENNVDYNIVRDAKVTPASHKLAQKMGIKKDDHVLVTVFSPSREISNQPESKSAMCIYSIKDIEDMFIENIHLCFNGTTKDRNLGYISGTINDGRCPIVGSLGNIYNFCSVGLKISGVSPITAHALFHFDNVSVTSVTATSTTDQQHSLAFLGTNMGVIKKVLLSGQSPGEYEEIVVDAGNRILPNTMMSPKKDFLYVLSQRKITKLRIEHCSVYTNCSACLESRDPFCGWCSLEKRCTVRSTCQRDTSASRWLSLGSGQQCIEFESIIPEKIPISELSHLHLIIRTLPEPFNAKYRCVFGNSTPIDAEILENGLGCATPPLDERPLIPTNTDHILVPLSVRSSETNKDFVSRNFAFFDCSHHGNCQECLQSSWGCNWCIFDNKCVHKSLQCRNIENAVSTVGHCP

[3] = target: Drosophila melanogaster full-length secreted semaphorin-2b (Sema2b_(full)) (Drosophila melanogaster); test: SEC-MALS; Superdex 200 Increase 10/300, 15 mM HEPES pH 7.4, 150 mM NaCl; with SDS-PAGE under reducing and non-reducing conditions; initial concentrations up to 2 mg/ml; monomer to dimer
[4] = target: Drosophila melanogaster semaphorin-1a full-length ectodomain (Sema1a_(ecto)) (Drosophila melanogaster); test: as above
[5] = target: T1, Drosophila melanogaster PlexA1–4-mVenus (Drosophila melanogaster, UniProt Q9V491 28-730); test: MST; plexin-mVenus kept constant, unlabelled semaphorin titrated (1:1 dilution series); 25 °C; 15 mM HEPES pH 7.4, 150 mM NaCl, 2 mM CaCl2, 0.005% Tween-20; 1 h incubation at room temperature; apparent Kd
T1 construct: Plexin A, Drosophila melanogaster, domains 1-4 of the ectodomain, residues 28Q-730T; source: HEK293T, transient transfection, purified (HisTrap, SEC); not shown: mVenus, C-terminal, kept
T1 sequence (looked up): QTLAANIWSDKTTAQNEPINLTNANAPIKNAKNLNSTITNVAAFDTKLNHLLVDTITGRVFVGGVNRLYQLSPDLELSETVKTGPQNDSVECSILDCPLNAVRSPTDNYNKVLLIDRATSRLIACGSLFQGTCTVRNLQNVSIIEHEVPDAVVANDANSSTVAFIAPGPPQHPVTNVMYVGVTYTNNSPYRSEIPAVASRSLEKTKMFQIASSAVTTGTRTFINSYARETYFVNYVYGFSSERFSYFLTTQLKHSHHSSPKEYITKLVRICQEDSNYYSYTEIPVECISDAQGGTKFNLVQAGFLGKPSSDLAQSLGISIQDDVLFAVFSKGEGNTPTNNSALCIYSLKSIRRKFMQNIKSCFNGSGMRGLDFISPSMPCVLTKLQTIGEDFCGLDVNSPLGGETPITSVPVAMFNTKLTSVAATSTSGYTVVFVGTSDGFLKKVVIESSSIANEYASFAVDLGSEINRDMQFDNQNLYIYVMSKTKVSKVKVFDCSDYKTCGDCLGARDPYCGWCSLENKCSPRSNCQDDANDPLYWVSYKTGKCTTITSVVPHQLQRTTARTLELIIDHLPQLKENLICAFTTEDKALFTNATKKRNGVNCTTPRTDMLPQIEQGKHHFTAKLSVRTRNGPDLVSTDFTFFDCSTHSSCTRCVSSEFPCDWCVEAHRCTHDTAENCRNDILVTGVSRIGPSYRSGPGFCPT

[6] = target: the molecule itself; test: SEC-MALS; Superdex 200 Increase 10/300, 15 mM HEPES pH 7.4, 150 mM NaCl; with SDS-PAGE under reducing and non-reducing conditions; initial concentrations up to 2 mg/ml; monomer to dimer
[7] = target: Drosophila melanogaster full-length secreted semaphorin-2b (Sema2b_(full)) (Drosophila melanogaster); test: SEC-MALS; co-expressed heterodimer purified by HisTrap, StrepTactin and SEC; Superdex 200 Increase 10/300, 15 mM HEPES pH 7.4, 150 mM NaCl; with SDS-PAGE under reducing and non-reducing conditions

stoichiometry N [1]: 2
Molecule: Sema2b_(full) with the dimerization cysteine mutated to serine (ligand)

Kd [2]: 13 nM
Molecule: Sema2a/2b heterodimer (Sema2a_(full)-TwinStrep with Sema2b_(full)-His6, disulfide-linked) (from UniProt Q24323 26-724) (complex)

stoichiometry N [3]: 2
Kd [2]: 3 nM
Molecule: Drosophila melanogaster full-length secreted semaphorin-2b (Sema2b_(full)) (ligand)

stoichiometry N [4]: 2
Molecule: Drosophila melanogaster semaphorin-1a full-length ectodomain (Sema1a_(ecto)) (domain or fragment)

Kd [5]: 141 nM
Molecule: Fc-tagged dimerized Sema1a_(ecto) (Sema1a_(ecto)-Fc) (from UniProt Q24322 21-602) (Fc fusion)

B1: Sema1b_(ecto) with phenylalanine 254 mutated to cysteine (domain or fragment, Drosophila melanogaster, UniProt Q7KK54 37-659, looked up)
chain: DVKPDLQTKQDKVLAHFIGNSTDYFKILDHNDEFVLVGAKDVIYNVSLNGLKEIARLEWHSTDADRELCALKGKHEWDCHNYLRVYALRPNGEVLLCGTNSYKPRCRHYTPVEVSSEEAGSAGHAHAMRYEVSRDVEAQGLCPYSPAHNSTYAFADGHLYSATVADFSGGDPLIYRENLRTEQYDLKQLNQPDFVGAIERNGYVLFFFRELSMEVMNCGKAVYSRVARVCKNDRGGPYSHGKSWTSFLKARLNCSVPGEFPFYFDEIQAISPIVESGSKSLIYAVFTTSVNAIPGSAVCAFNVDDILAAFDGEFKSQKDSQSHWLPVEREQVPKPRPGQCVEDSRTLTSIAVNFIKNHPLMEEAVPAVHGRPLLTKVNLHHRLTAIAVHPQVKSLSGAYYDVIYSGTDDGKVTKFINILSTHPNSTVDRLKTVVISEMQVLPLGTPIRELVISTSKNSLVVVSDGSLVSVPLHHCSHIVDCLGCLSLQDPICAWDLQTHECKNLATSQHKFGTKTYLQSLNSTKKAAALLCPHIPRDAPGAETVSFVTMAPPPTEEQKLLYSNVGSSQGNQPSLEQQPTGGDDFGLNKITLTSMDPDDIMPNLNDPQKSTASVDEIKYASTPS
notes: Semaphorin-1b, Drosophila melanogaster, ectodomain, residues 37D-659S, F254C; also called Sema1b_(ecto) F254C; source: HEK293T, transient transfection, purified (HisTrap, SEC)
stoichiometry N [6]: 2

Kd ([5]; both partners purified): 586 ± 134 nM
B2: Drosophila melanogaster semaphorin-1b full-length ectodomain (Sema1b_(ecto)) (domain or fragment, UniProt Q7KK54 37-659, looked up)
chain: DVKPDLQTKQDKVLAHFIGNSTDYFKILDHNDEFVLVGAKDVIYNVSLNGLKEIARLEWHSTDADRELCALKGKHEWDCHNYLRVYALRPNGEVLLCGTNSYKPRCRHYTPVEVSSEEAGSAGHAHAMRYEVSRDVEAQGLCPYSPAHNSTYAFADGHLYSATVADFSGGDPLIYRENLRTEQYDLKQLNQPDFVGAIERNGYVLFFFRELSMEVMNFGKAVYSRVARVCKNDRGGPYSHGKSWTSFLKARLNCSVPGEFPFYFDEIQAISPIVESGSKSLIYAVFTTSVNAIPGSAVCAFNVDDILAAFDGEFKSQKDSQSHWLPVEREQVPKPRPGQCVEDSRTLTSIAVNFIKNHPLMEEAVPAVHGRPLLTKVNLHHRLTAIAVHPQVKSLSGAYYDVIYSGTDDGKVTKFINILSTHPNSTVDRLKTVVISEMQVLPLGTPIRELVISTSKNSLVVVSDGSLVSVPLHHCSHIVDCLGCLSLQDPICAWDLQTHECKNLATSQHKFGTKTYLQSLNSTKKAAALLCPHIPRDAPGAETVSFVTMAPPPTEEQKLLYSNVGSSQGNQPSLEQQPTGGDDFGLNKITLTSMDPDDIMPNLNDPQKSTASVDEIKYASTPS
notes: Semaphorin-1b, Drosophila melanogaster, ectodomain, residues 37D-659S; Monomer in solution; source: HEK293T (30 °C), transient transfection, purified (HisTrap, SEC)

stoichiometry N [7]: 1
B3: Drosophila melanogaster full-length secreted semaphorin-2a (Sema2a_(full)) (ligand, UniProt Q24323 26-724, looked up)
chain: DYENTWNFYYERPCCTGNDQGNNNYGKHGADHVREFNCGKLYYRTFHMNEDRDTLYVGAMDRVFRVNLQNISSSNCNRDVINLEPTRDDVVSCVSKGKSQIFDCKNHVRVIQSMDQGDRLYVCGTNAHNPKDYVIYANLTHLPRSEYVIGVGLGIAKCPYDPLDNSTAIYVENGNPGGLPGLYSGTNAEFTKADTVIFRTDLYNTSAKRLEYKFKRTLKYDSKWLDKPNFVGSFDIGEYVYFFFRETAVEYINCGKAVYSRIARVCKKDVGGKNLLAHNWATYLKARLNCSISGEFPFYFNEIQSVYQLPSDKSRFFATFTTSTNGLIGSAVCSFHINEIQAAFNGKFKEQSSSNSAWLPVLNSRVPEPRPGTCVNDTSNLPDTVLNFIRSHPLMDKAVNHEHNNPVYYKRDLVFTKLVVDKIRIDILNQEYIVYYVGTNLGRIYKIVQYYRNGESLSKLLDIFEVAPNEAIQVMEISQTRKSLYIGTDHRIKQIDLAMCNRRYDNCFRCVRDPYCGWDKEANTCRPYELDLLQDVANETSDICDSSVLKKKIVVTYGQSVHLGCFVKIPEVLKNEQVTWYHHSKDKGRYEIRYSPTKYIETTERGLVVVSVNEADGGRYDCHLGGSLLCSYNITVDAHRCTPPNKSNDYQKIYSDWCHEFEKYKTAMKSWEKKQAQCSTRQNFSSNQHPNEIFRKPNV
notes: Semaphorin-2a, Drosophila melanogaster, residues 26D-724V; Disulfide-linked dimer in solution; source: HEK293T (37 °C), transient transfection, purified (HisTrap, SEC)
stoichiometry N [6]: 2

B4: Sema2a_(full) with the dimerization cysteine (Cys279) mutated to serine (ligand, Drosophila melanogaster, UniProt Q24323 26-724, looked up)
chain: DYENTWNFYYERPCCTGNDQGNNNYGKHGADHVREFNCGKLYYRTFHMNEDRDTLYVGAMDRVFRVNLQNISSSNCNRDVINLEPTRDDVVSCVSKGKSQIFDCKNHVRVIQSMDQGDRLYVCGTNAHNPKDYVIYANLTHLPRSEYVIGVGLGIAKCPYDPLDNSTAIYVENGNPGGLPGLYSGTNAEFTKADTVIFRTDLYNTSAKRLEYKFKRTLKYDSKWLDKPNFVGSFDIGEYVYFFFRETAVEYINSGKAVYSRIARVCKKDVGGKNLLAHNWATYLKARLNCSISGEFPFYFNEIQSVYQLPSDKSRFFATFTTSTNGLIGSAVCSFHINEIQAAFNGKFKEQSSSNSAWLPVLNSRVPEPRPGTCVNDTSNLPDTVLNFIRSHPLMDKAVNHEHNNPVYYKRDLVFTKLVVDKIRIDILNQEYIVYYVGTNLGRIYKIVQYYRNGESLSKLLDIFEVAPNEAIQVMEISQTRKSLYIGTDHRIKQIDLAMCNRRYDNCFRCVRDPYCGWDKEANTCRPYELDLLQDVANETSDICDSSVLKKKIVVTYGQSVHLGCFVKIPEVLKNEQVTWYHHSKDKGRYEIRYSPTKYIETTERGLVVVSVNEADGGRYDCHLGGSLLCSYNITVDAHRCTPPNKSNDYQKIYSDWCHEFEKYKTAMKSWEKKQAQCSTRQNFSSNQHPNEIFRKPNV
notes: Semaphorin-2a, Drosophila melanogaster, residues 26D-724V, Cys279 to serine; also called Sema2a_(full) Cys to Ser mutant; source: HEK293T, transient transfection, purified (HisTrap, SEC)
stoichiometry N [6]: 2
